This is an account of results in patent publication US20240207432A1 (BIOSION, published 2024).

Read-outs that look alike come from different tables or passages of the source.

Test [1] addresses T1, full length human TROP2 on 293F-TROP2 cells (human, UniProt P09758 27-323).
T1 construct: also called 293F-TROP2 cells (clone ID #3A8); cell surface TROP2
T1 sequence: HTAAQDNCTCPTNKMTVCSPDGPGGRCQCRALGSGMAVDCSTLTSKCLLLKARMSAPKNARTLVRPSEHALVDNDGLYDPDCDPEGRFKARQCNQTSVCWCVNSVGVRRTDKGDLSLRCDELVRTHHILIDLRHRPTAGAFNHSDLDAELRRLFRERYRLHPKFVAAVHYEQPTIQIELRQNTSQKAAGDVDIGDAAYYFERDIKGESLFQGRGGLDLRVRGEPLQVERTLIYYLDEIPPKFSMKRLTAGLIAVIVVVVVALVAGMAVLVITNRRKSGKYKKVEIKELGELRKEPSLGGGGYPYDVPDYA
In words: FACS on 293F-TROP2 cells, MFI.

The target of test [2] is T2, human TROP2-his protein (human, UniProt P09758 27-274).
T2 construct: Biotin-labelled in the ELISAs, unlabelled analyte in Biacore; also called biotin-labeled human TROP2-his protein; biotin human Trop2-his
T2 sequence: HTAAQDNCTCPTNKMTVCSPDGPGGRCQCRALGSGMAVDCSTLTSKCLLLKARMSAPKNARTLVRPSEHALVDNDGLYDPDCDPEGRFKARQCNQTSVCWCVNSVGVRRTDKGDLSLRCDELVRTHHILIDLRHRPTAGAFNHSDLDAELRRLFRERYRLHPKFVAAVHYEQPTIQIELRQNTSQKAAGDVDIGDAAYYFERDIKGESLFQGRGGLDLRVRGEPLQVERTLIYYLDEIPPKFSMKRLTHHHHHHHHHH
In words: SPR Biacore, antibody captured on anti-human IgG CM5 chip, TROP2-his analyte. The protocol: (§1) Un-reacted moieties on the chip (biosensor) surface were blocked with ethanolamine. […] The antigen-antibody association kinetics was followed for 2 minutes and the dissociation kinetics was followed for 10 minutes. The association and dissociation curves were fit to a 1:1 Langmuir binding model using BIAcore evaluation software.
For orientation: SPR reads the build-up and loss of mass on a sensor chip optically.

Test [3] addresses T2, human TROP2-his protein. In words: capture ELISA, antibody captured on anti-human IgG Fc coat, biotin human TROP2-his in solution, OD(450-630). The protocol: (§2) Plates were washed once with wash buffer (PBS+0.05% v/v Tween-20, PBST) and then blocked with 200 μl/well blocking buffer (5% w/v non-fatty milk in PBST) for 2 hours at 37° C. […] Plates containing captured anti-TROP2 antibodies were incubated with biotin-labeled human TROP2-his protein (prepared in house, SEQ ID NO: 67, 56.7 ng/mL in 2.5% w/v non-fatty milk in PBST, 100 μl/well) for 40 minutes at 37° C., washed 4 times, and incubated with streptavidin conjugated HRP (1:10000 dilution in PBST, Jackson Immuno Research, Cat #016-030-084, 100 μl/well) for 40 minutes at 37° C. After a final wash, plates were incubated with 100 μl/well ELISA substrate TMB (Innoreagents, Cat #TMB-S-002) at room temperature. The reaction was stopped in 3-10 minutes at room temperature with 50 μl/well 1M H₂SO₄, and the absorbance of each well was read on a microplate reader using dual wavelength mode with 450 nm for TMB and 630 nm as the reference wavelength. The OD (450-630) values were plotted against antibody concentration. Data was analyzed using Graphpad Prism software and EC₅₀ values were reported.
For the capture ELISA, AffiniPure Goat Anti-Human IgG, Fcγ fragment specific (Jackson Immuno Research, Cat #109-005-098) was used instead of AffiniPure Goat Anti-Mouse IgG, Fcγ fragment specific, 100 μl/well.

Test [4] addresses T3, cynomolgus TROP2-his protein (cynomolgus monkey, UniProt P09758 27-272 (human entry), limits assumed).
T3 construct: no cleavage site is stated; also called Cynomolgus monkey TROP2-his protein; monkey TROP2
T3 chain: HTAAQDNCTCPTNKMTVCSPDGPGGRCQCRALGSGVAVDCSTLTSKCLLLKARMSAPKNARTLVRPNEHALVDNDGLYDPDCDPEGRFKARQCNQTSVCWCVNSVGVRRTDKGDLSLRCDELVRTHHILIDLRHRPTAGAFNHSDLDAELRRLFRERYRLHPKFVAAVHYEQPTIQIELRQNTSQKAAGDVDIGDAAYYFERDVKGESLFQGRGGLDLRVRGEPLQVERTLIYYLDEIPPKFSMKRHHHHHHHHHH
In words: indirect ELISA, cynomolgus TROP2-his coated, OD(450-630). For orientation: An ELISA detects its analyte on a solid surface through an enzyme-linked reagent.

Test [5] addresses T3, cynomolgus TROP2-his protein. The description is as above.
Test [6] shares this target. In words: SPR Biacore, antibody captured on anti-human IgG CM5 chip, TROP2-his analyte. On the procedure:
as §1

In test [7] the target is T2, human TROP2-his protein. The description is as above. The protocol: as §1
This is another data set of the same source.

The target in test [8] is T3, cynomolgus TROP2-his protein. The description is as above. The protocol:
as §1

Test [9] concerns the target T1, full length human TROP2 on 293F-TROP2 …. In words: FACS on 293F-TROP2 cells, MFI. The protocol:
The 293F-TROP2 cells were harvested from cell culture flasks, washed twice and re-suspended in phosphate buffered saline (PBS) containing 2% v/v Fetal Bovine Serum (FACS buffer). […] Following an incubation of 40 minutes at 4° C. in dark, cells were washed twice and re-suspended in FACS buffer. Fluorescence was measured using a Becton Dickinson FACS Canto II-HTS equipment, and the MFI (mean fluorescence intensity) was plotted against antibody concentration. Data was analyzed using Graphpad Prism software and EC₅₀ values were reported.
This is another data set of the same source.

Test [10] deals with T2, human TROP2-his protein. In words: capture ELISA, antibody captured on anti-human IgG Fc coat, biotin human TROP2-his in solution, OD(450-630). On the procedure: as §2
For the Capture ELISA, AffiniPure F(ab′)₂ Fragment Goat Anti-Human IgG, Fcγ fragment specific (Jackson Immunoresearch, Cat #109-006-008) was used instead of AffiniPure Goat Anti-Mouse IgG, Fcγ fragment specific, 100 μl/well.
The source holds these as a separate data set.

Test [11] deals with T2, human TROP2-his protein. In words: competitive ELISA: BM1 coated, antibody premixed with biotin human TROP2-his; blocked: binding of TROP2-his to coated BM1; partial only: OD falls from about 1.9 to a plateau of about 1.3.

B1: chimeric C1B3B12D2 (antibody, human IgG1, kappa, V domains shown)
VH: QVQLQQSGPELVRPGTSVKMSCKAAGYTFTKFWIGWVKQRPGHGLEWIGNIYPGGAYINYNENFKGKATLTADTFSSTAYMQLNSLTSADSAIYYCAREGSSGYWGQGTTLTVSS
VL: DIVMTQSPSSLTVTAGEKVTLSCKCSQSLLNSGTQENYLTWYQQKPGQPPKMLIYWASIREPGVPDRFTGSGSGTDFTLTINNVQAEDLAVYYCQHDYSYPFTFGSGTKLEIKR
Broadly, the EC50 is the concentration at which the effect is half-maximal. Low readings indicate a more potent agent, high ones a less potent agent. By Kd is commonly meant the equilibrium constant for the complex coming apart. A higher Kd goes with a looser complex. The koff is the rate constant with which the complex falls apart. By kon is commonly meant a measure of how fast the partners come together. A lower kon goes with slower complex formation. The molecule B1 registered a concentration giving a half-maximal response (EC50) in [1] of 0.81 nM. In [2], this molecule yielded a Kd of 0.125 nM, a koff of 9.54e-05 s⁻¹ and a kon of 763000 M⁻¹ s⁻¹. Also, the EC50 in [3] was found to be 0.111 nM. In test [4], a half-maximal response (EC50) required 0.26 nM.

B2: chimeric A1E4F7D4 (antibody, human IgG1, kappa, V domains shown)
VH: QVQLQQSGAELAKPGTSVKMSCEASGYSFTTHWIHWMKQRPGQGLEWIGTIFPSNAYAVYNQKFRDRAIMTADRSSTTAYIQLTGLTSEDSAVYYCARASYFDYWGQGTTLTVSS
VL: DILLTQSPATLSVSPGERVTFSCRASQNIGTSIHWFQQRTTGSPRLLIKYASESISGIPSRFSGSGSGTDFTLHINSVESEDIAHYYCQHSHSWPFTFGSGTKLEIQR
notes: also called chimeric antibody A1E4F7D4
One may read the IC50 as the midpoint of a concentration-inhibition curve. Read a high IC50 as weaker potency in that assay. Take B2: the EC50 in test [5] was 0.967 nM; in [1] it was 0.36 nM; in [3] it was 0.0979 nM; in test [9], 0.575 nM; in [10] it was 0.0732 nM; in test [4], 0.237 nM. For the same molecule, the Kd in test [6] came out at 0.134 nM; in [7], 0.185 nM; in [8] it was 0.247 nM; in test [2] it was 0.0326 nM. The dissociation rate constant (koff) in test [6] turned out to be 0.000163 s⁻¹; in test [7], 0.000194 s⁻¹; in test [8], 0.000171 s⁻¹; in test [2] it was 3.13e-05 s⁻¹. For the same molecule, the kon in test [6] was found to be 1.22e+06 M⁻¹ s⁻¹; in [7], 1.05e+06 M⁻¹ s⁻¹; in [8], 692000 M⁻¹ s⁻¹; in test [2] it was 961000 M⁻¹ s⁻¹. For the same molecule, in [11], the half-maximal inhibitory concentration (IC50) turned out to be 0.447 nM.
